B5: Trx-CaV1.2 JBM (domain or fragment)
chain: not shown
B6: CaV1.2 JBM (as used in SEC and SEC-MALS) (domain or fragment)
chain: not shown

The assay “Trx-CaV1.2 JBM” concerns the target B5. Put plainly: ITC.
For assay [1], the target named is B6. Put plainly: SEC-MALS.
The next assay addresses T1, MBP-Mus_JPH3 NT WT (mouse, UniProt Q9ET77 1-446).
T1 sequence (looked up): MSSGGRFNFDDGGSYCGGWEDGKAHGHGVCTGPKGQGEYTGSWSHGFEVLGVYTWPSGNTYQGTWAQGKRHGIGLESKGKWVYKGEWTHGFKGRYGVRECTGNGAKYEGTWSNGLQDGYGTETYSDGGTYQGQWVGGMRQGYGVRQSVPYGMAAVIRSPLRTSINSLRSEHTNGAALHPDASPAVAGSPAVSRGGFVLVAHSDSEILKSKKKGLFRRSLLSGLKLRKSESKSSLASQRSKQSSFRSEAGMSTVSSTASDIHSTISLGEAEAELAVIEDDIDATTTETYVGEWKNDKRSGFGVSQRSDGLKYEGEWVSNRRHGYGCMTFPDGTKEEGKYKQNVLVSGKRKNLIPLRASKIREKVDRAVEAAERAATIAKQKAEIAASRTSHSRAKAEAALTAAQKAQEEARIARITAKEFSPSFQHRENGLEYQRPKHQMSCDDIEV
Put plainly: ITC. Background: In ITC the heat of successive injections is recorded.

Assay [2] concerns the target T2, MBP-JPH2 NT (mouse, wild type) (mouse, UniProt Q9ET78 1-440).
T2 sequence (looked up): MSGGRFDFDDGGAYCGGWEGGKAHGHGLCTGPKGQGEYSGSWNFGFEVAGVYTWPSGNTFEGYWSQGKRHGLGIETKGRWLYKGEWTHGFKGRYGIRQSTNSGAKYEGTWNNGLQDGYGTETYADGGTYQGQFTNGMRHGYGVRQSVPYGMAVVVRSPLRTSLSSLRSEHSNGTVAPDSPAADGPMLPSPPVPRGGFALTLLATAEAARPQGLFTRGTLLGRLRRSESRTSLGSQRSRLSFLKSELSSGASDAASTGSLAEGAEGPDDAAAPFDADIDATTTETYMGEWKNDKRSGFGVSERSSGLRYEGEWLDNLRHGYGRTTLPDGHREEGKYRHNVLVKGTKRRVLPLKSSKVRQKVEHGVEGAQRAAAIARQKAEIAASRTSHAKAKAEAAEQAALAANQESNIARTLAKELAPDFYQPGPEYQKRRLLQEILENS
Put plainly: ITC.

The target of a further assay is T3, MBP-JPH2 MORN-Helix (mouse, UniProt Q9ET78 1-440, Δ176-273).
T3 sequence (looked up): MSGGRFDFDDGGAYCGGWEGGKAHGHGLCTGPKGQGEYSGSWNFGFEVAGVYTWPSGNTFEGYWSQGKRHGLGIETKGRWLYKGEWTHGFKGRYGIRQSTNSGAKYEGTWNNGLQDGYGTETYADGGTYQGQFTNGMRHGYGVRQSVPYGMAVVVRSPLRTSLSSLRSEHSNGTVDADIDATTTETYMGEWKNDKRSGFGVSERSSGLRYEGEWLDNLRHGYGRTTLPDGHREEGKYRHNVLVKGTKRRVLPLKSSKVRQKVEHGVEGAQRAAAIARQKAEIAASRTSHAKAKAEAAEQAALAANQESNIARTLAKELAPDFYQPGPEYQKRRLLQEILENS
Nature of the assay: ITC.

The next assay addresses T4, MBP-Mus_JPH1 NT WT (mouse, UniProt Q9ET80 1-436).
T4 sequence (looked up): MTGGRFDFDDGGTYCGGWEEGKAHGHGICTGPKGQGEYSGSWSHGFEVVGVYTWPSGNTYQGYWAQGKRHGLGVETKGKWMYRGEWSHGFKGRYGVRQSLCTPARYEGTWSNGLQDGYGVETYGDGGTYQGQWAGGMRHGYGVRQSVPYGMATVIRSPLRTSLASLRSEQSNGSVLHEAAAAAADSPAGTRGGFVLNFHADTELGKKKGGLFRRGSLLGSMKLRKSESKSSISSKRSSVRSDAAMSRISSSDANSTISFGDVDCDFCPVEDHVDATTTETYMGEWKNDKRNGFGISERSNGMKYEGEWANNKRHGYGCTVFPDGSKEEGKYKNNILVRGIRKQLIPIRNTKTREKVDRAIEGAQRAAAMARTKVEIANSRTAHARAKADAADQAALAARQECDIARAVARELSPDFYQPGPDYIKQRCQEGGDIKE
Put plainly: ITC.

Assay [3] deals with T5, JPH2 MORN-Helix (as used in SEC-MALS) (mouse, UniProt Q9ET78 1-440, Δ176-273).
T5 sequence (looked up): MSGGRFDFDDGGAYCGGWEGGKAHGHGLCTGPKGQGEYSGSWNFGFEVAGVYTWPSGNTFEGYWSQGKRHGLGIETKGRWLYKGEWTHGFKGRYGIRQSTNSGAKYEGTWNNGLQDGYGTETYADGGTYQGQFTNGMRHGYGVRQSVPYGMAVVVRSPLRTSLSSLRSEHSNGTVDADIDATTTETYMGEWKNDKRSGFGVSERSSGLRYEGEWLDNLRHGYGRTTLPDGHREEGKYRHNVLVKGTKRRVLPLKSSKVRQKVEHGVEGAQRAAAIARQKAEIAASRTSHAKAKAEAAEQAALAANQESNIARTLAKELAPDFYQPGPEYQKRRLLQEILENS
Nature of the assay: SEC-MALS. For orientation: SEC sorts molecules by how far they enter the pores of the column.

Sequence of Trx-CaV1.2 JBM (Q01815 1647-1777): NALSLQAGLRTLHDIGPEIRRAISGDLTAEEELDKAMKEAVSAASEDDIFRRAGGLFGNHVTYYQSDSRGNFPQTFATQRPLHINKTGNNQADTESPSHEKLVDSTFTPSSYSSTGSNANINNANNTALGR

B1: JPH2 NT S165I (domain or fragment, mouse, UniProt Q9ET78 1-440, looked up)
chain: MSGGRFDFDDGGAYCGGWEGGKAHGHGLCTGPKGQGEYSGSWNFGFEVAGVYTWPSGNTFEGYWSQGKRHGLGIETKGRWLYKGEWTHGFKGRYGIRQSTNSGAKYEGTWNNGLQDGYGTETYADGGTYQGQFTNGMRHGYGVRQSVPYGMAVVVRSPLRTSLSILRSEHSNGTVAPDSPAADGPMLPSPPVPRGGFALTLLATAEAARPQGLFTRGTLLGRLRRSESRTSLGSQRSRLSFLKSELSSGASDAASTGSLAEGAEGPDDAAAPFDADIDATTTETYMGEWKNDKRSGFGVSERSSGLRYEGEWLDNLRHGYGRTTLPDGHREEGKYRHNVLVKGTKRRVLPLKSSKVRQKVEHGVEGAQRAAAIARQKAEIAASRTSHAKAKAEAAEQAALAANQESNIARTLAKELAPDFYQPGPEYQKRRLLQEILENS
B1: the “fold decrease in affinity against the wild type” value in the assay with Trx-CaV1.2 JBM amounted to 2 fold.

B2: JPH2 NT (mouse, wild type, as used in SEC-MALS) (domain or fragment, UniProt Q9ET78 1-440, looked up)
chain: MSGGRFDFDDGGAYCGGWEGGKAHGHGLCTGPKGQGEYSGSWNFGFEVAGVYTWPSGNTFEGYWSQGKRHGLGIETKGRWLYKGEWTHGFKGRYGIRQSTNSGAKYEGTWNNGLQDGYGTETYADGGTYQGQFTNGMRHGYGVRQSVPYGMAVVVRSPLRTSLSSLRSEHSNGTVAPDSPAADGPMLPSPPVPRGGFALTLLATAEAARPQGLFTRGTLLGRLRRSESRTSLGSQRSRLSFLKSELSSGASDAASTGSLAEGAEGPDDAAAPFDADIDATTTETYMGEWKNDKRSGFGVSERSSGLRYEGEWLDNLRHGYGRTTLPDGHREEGKYRHNVLVKGTKRRVLPLKSSKVRQKVEHGVEGAQRAAAIARQKAEIAASRTSHAKAKAEAAEQAALAANQESNIARTLAKELAPDFYQPGPEYQKRRLLQEILENS
The stoichiometry N is the number of molecules, sites or subunits per partner or assembly. Consider B2, for which the “stoichiometry N” value in assay [1] came out at 1.

B3: JPH2 NT S165L (domain or fragment, mouse, UniProt Q9ET78 1-440, looked up)
chain: MSGGRFDFDDGGAYCGGWEGGKAHGHGLCTGPKGQGEYSGSWNFGFEVAGVYTWPSGNTFEGYWSQGKRHGLGIETKGRWLYKGEWTHGFKGRYGIRQSTNSGAKYEGTWNNGLQDGYGTETYADGGTYQGQFTNGMRHGYGVRQSVPYGMAVVVRSPLRTSLSLLRSEHSNGTVAPDSPAADGPMLPSPPVPRGGFALTLLATAEAARPQGLFTRGTLLGRLRRSESRTSLGSQRSRLSFLKSELSSGASDAASTGSLAEGAEGPDDAAAPFDADIDATTTETYMGEWKNDKRSGFGVSERSSGLRYEGEWLDNLRHGYGRTTLPDGHREEGKYRHNVLVKGTKRRVLPLKSSKVRQKVEHGVEGAQRAAAIARQKAEIAASRTSHAKAKAEAAEQAALAANQESNIARTLAKELAPDFYQPGPEYQKRRLLQEILENS
For B3, the “fold decrease in affinity against the wild type” value with Trx-CaV1.2 JBM came to 2 fold.

B4: MBP-JPH2 NT S165Y (domain or fragment, mouse, UniProt Q9ET78 1-440, looked up)
chain: MSGGRFDFDDGGAYCGGWEGGKAHGHGLCTGPKGQGEYSGSWNFGFEVAGVYTWPSGNTFEGYWSQGKRHGLGIETKGRWLYKGEWTHGFKGRYGIRQSTNSGAKYEGTWNNGLQDGYGTETYADGGTYQGQFTNGMRHGYGVRQSVPYGMAVVVRSPLRTSLSYLRSEHSNGTVAPDSPAADGPMLPSPPVPRGGFALTLLATAEAARPQGLFTRGTLLGRLRRSESRTSLGSQRSRLSFLKSELSSGASDAASTGSLAEGAEGPDDAAAPFDADIDATTTETYMGEWKNDKRSGFGVSERSSGLRYEGEWLDNLRHGYGRTTLPDGHREEGKYRHNVLVKGTKRRVLPLKSSKVRQKVEHGVEGAQRAAAIARQKAEIAASRTSHAKAKAEAAEQAALAANQESNIARTLAKELAPDFYQPGPEYQKRRLLQEILENS
Turning to B4, in the assay with Trx-CaV1.2 JBM, the “fold weakening of the binding against the wild type” value was approximately 3 fold.
By Kd is commonly meant the constant that tells how readily two partners part at equilibrium. Higher therefore signals a looser complex. For the molecule B5, the values for the Kd (with MBP-Mus_JPH3 NT WT; in assay [2]; with MBP-Mus_JPH1 NT WT) were 5.82 ± 0.36 µM, approximately 6.04 µM and 5.54 ± 0.71 µM, respectively. The binding result with MBP-JPH2 MORN-Helix was “binds”.
Turning to B6, in assay [3], the binding result is “binds”.

(Values after article PMC12748787 (Communications Biology, 2025).)
